Measurements from publication doi:10.1101/2024.03.12.584494.
Each block holds one substance with its values, some of them ahead of it.

Experiments:
Assay in all cases: co-IP
mGFP-KIBRA ΔCt (mouse) = mGFP-KIBRA ΔCt (mouse) (UniProt Q5SXA9)
mCherry-PICK1 WT (mouse) = mCherry-PICK1 WT (mouse) (UniProt Q62083)
mGFP-KIBRA ΔαBR (mouse) = mGFP-KIBRA ΔαBR (mouse) (UniProt Q5SXA9)
mCherry-KIBRA WT (mouse) = mCherry-KIBRA WT (mouse) (UniProt Q5SXA9)
mGFP-PICK1 5K-E (mouse) = mGFP-PICK1 5K-E (mouse) (UniProt Q62083)
Chain of mGFP-PICK1 5K-E (mouse) (Q62083 whole entry): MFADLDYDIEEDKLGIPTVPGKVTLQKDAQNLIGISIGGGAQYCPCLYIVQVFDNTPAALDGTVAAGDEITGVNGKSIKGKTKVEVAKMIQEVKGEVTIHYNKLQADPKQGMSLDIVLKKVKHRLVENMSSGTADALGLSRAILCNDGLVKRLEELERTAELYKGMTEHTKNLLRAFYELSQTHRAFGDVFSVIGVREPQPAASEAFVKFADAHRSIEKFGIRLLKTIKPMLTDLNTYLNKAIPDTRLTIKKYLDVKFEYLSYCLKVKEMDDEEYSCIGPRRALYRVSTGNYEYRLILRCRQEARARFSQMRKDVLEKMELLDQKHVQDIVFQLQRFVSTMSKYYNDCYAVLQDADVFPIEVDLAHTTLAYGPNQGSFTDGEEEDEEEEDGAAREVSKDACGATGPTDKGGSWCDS

mGFP-KIBRA ΔC2 (mouse) = mGFP-KIBRA ΔC2 (mouse) (UniProt Q5SXA9)
mGFP-KIBRA ΔCCL (mouse) = mGFP-KIBRA ΔCCL (mouse) (UniProt Q5SXA9)

Chain of mCherry-PICK1 WT (mouse) (Q62083 whole entry): as above
Chain of mGFP-KIBRA ΔCCL (Q5SXA9 whole entry, stated change not applied): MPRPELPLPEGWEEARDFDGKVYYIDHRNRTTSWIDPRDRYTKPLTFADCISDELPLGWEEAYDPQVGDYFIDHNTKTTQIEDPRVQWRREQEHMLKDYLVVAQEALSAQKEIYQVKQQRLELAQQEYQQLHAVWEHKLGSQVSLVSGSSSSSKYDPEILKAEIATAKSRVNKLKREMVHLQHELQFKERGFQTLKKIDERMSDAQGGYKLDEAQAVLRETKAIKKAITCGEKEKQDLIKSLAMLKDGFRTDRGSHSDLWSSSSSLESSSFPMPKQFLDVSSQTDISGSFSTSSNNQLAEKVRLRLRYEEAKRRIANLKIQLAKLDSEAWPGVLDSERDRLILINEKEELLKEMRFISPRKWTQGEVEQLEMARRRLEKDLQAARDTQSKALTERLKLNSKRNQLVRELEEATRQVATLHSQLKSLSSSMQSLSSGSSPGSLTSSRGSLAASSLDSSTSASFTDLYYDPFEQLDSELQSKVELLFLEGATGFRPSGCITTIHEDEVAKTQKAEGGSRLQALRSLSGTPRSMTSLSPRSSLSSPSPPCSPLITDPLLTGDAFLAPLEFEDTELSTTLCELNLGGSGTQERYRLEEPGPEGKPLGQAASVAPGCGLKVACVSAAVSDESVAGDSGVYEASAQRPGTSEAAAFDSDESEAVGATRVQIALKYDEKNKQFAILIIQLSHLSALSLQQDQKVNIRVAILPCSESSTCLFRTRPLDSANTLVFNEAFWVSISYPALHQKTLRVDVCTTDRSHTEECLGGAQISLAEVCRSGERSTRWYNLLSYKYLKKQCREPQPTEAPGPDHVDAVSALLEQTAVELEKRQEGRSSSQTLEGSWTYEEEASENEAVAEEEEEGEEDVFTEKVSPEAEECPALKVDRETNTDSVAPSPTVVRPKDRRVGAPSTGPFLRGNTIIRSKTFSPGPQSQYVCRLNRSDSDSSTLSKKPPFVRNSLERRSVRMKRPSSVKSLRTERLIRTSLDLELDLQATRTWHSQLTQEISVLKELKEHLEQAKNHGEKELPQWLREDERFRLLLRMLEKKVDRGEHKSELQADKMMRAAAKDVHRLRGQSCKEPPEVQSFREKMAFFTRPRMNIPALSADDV
Chain of mGFP-KIBRA ΔCt (Q5SXA9 whole entry, stated change not applied): as above
Chain of mGFP-KIBRA ΔαBR (Q5SXA9 whole entry, stated change not applied): as above
Chain of mCherry-KIBRA WT (mouse) (Q5SXA9 whole entry): as the sequence (Q5SXA9 whole entry, stated change not applied) above
Chain of mGFP-KIBRA ΔC2 (Q5SXA9 whole entry, stated change not applied): as above
Chain of mGFP-KIBRA ΔWW (Q5SXA9 whole entry, stated change not applied): as above
Chain of mCherry-KIBRA WT (Q5SXA9 whole entry): as the sequence (Q5SXA9 whole entry, stated change not applied) above
Chain of mGFP-PICK1 KD-AA (Q62083 whole entry): as the sequence (Q62083 whole entry) above
Chain of mGFP-PICK1 BAR (domain or fragment) (Q62083 whole entry, the tested form may be a part): as the sequence (Q62083 whole entry) above
Chain of Myc-GluA2 (P19491 22-883): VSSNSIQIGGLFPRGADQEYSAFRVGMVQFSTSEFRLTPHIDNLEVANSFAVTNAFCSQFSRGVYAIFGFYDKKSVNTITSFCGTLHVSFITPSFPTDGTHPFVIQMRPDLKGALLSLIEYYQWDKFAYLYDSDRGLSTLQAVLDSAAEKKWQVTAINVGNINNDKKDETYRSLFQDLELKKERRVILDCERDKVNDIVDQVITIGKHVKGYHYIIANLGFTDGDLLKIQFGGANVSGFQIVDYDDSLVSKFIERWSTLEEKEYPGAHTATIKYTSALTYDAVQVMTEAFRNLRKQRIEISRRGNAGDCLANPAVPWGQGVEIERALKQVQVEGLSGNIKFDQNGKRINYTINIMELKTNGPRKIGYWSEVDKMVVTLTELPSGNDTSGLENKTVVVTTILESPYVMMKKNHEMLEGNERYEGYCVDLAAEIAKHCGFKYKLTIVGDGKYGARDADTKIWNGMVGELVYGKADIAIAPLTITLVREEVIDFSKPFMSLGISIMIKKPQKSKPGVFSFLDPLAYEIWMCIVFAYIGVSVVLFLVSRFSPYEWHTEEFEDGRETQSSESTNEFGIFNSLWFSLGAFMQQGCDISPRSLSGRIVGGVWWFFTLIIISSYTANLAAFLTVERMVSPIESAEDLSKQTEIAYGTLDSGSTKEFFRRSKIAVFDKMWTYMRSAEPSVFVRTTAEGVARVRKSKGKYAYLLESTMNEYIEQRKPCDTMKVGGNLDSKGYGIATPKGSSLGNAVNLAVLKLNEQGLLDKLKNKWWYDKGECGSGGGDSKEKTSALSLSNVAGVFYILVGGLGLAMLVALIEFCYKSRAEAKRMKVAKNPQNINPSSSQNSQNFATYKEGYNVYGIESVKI

Substance: mGFP-KIBRA ΔαBR (from UniProt Q5SXA9 1-1104) (natural protein)
- co-precipitated mGFP-KIBRA normalized to WT sample from the same blot (mGFP-KIBRA ΔαBR (mouse)): 1.55
- co-precipitated KIBRA normalized to WT sample from the same blot (mCherry-PICK1 WT (mouse)): 1.84

Substance: mGFP-PICK1 BAR (domain or fragment)
- PICK1 pull down normalized to input and same-gel WT PICK1 (mCherry-KIBRA WT (mouse)): 2.06

Substance: mCherry-KIBRA WT (from UniProt Q5SXA9 1-1104) (natural protein)
- KIBRA signal with PICK1 5K-E normalized to +PICK1 WT (mGFP-PICK1 5K-E (mouse)): 0.63

Substance: Myc-GluA2 (from UniProt P19491 22-883) (receptor)
- GluA2 signal with PICK1 5K-E normalized to +PICK1 WT (mGFP-PICK1 5K-E (mouse)): 0.27

The remaining lines, values ahead:

- co-precipitated mGFP-KIBRA normalized to WT sample from the same blot (mGFP-KIBRA ΔCt (mouse)): 1
- co-precipitated KIBRA normalized to WT sample from the same blot (mCherry-PICK1 WT (mouse)): 5.79
Substance: mGFP-KIBRA ΔCt (from UniProt Q5SXA9 1-1104) (natural protein)

- co-precipitated KIBRA normalized to WT sample from the same blot (mCherry-PICK1 WT (mouse)): 1.08
- co-precipitated mGFP-KIBRA normalized to WT sample from the same blot (mGFP-KIBRA ΔC2 (mouse)): 1.36
Substance: mGFP-KIBRA ΔC2 (from UniProt Q5SXA9 1-1104) (natural protein)

- co-precipitated KIBRA normalized to WT sample from the same blot (mCherry-PICK1 WT (mouse)): 1.87
Substance: mGFP-KIBRA ΔWW (from UniProt Q5SXA9 1-1104) (natural protein)

- PICK1 pull down normalized to input and same-gel WT PICK1 (mCherry-KIBRA WT (mouse)): 0.8
Substance: mGFP-PICK1 KD-AA (from UniProt Q62083 1-416) (natural protein)

- co-precipitated KIBRA normalized to WT sample from the same blot (mCherry-PICK1 WT (mouse)): 1.53
- co-precipitated mGFP-KIBRA normalized to WT sample from the same blot (mGFP-KIBRA ΔCCL (mouse)): 1.6
Substance: mGFP-KIBRA ΔCCL (from UniProt Q5SXA9 1-1104) (natural protein)
